Experimental data taken from the DeepSol protein solubility set.

test: soluble on expression in E. coli; label from the status in PepcDB or PDB records

Soluble on expression in E. coli, soluble:
GGGGGGMVNLQRARTPIHRVGFARPPLHLAIPHPATTTPCAMSAESLVLALVLLALCGAVMLRWISQRHAHDSAVGDKALTHKGRLRLSQNASGSAAGRCGSDDGNDSDQGGVDDDNGGAVGRRRRGAGGVLRRRRPQERGGNARRGGSDGDENSYDGDDAGGIPETDANGVKLTRLQRKKLAKEREREERRQAQEAALEAQRQRMDVNELRDAEAALREEELKAAEEAALQQLRRDKKKAEDEEYAKWVSHIGVEERGELGDEERERQTRMQSFLLDRAAQVQARARRSAAGAKSSPSEEECIHVLILQTAARDLKVSVEELVSTIEQLSQVDKVHGVFDDRGKYVFIAPEQFPLLAQFIRLRGRVSVQEFTRECNRVVMQS
MSLQRPLGNHHDGPDTLLVTSDATQTELVTAETEKLRELITRARFVLFDFDGPICRLFAGHKAERVAVELVEWLEGRGLHALLSETEREALDPHIVLRAVDRRHPGSDLVAELEERLTKQELRAASSAMPTAYADPLIRTWTAVGARLAIATNNSPRVARKYVASRGLSACFAPHIYGRTQDLHLLKPDPHCLNRALNAMGAAPSASLMIGDTPSDYFAAQRAGVPFLGYARNDRKEKLLKEAGAEEIVGSLELVLRVLREQSASAREGHHHHHH
MAHHHHHHMGAEHSTGMTKVLMPQFSTKRQTGPFLSPVERVTASGQSVVIECGDGVSRVDDGTAVVELFALDSKATEEDAMVEAFGEFAITKDDLIGRTRSSLKRGRVEEDEDLPCYFLAPRRRSCSVGGHNSADADSVLASPSRWGAVETDADGAMWRLLQEYDELLCVEAIGDATEDLYCYPDHRKDDEFDSNAEDFSGNDYPDDADERSGESAERAEEEASGFSTERRGGRVASHSTYGMFCEEGYSERSLSSVWNSDG
MDLTQLEMFNAVAEAGSITQAAAKVHRVPSNLTTRLRQLETELGVDLFIRENQRLRLSPAGHNFLRYSQQILALVDEARSVVAGDEPQGLFSLGSLESTAAVRIPATLAEFNRRYPKIQFSLSTGPSGTMLDGVLEGKLNAAFIDGPINHTAIDGIPVYREELMIVTPQGYAPVTRASQVNGSNIYAFRANCSYRRHFESWFHADGAAPGTIHEMESYHGMLACVIAGAGIALIPRSMLESMPGHHQVEAWPLAEQWRWLTTWLVWRRGAKTRPLEAFIQLLDVPDSARQGYQ
DHYACVSSGGQCLYSACPIFTKIQGTCYRGKAKCCK
MEVKELERDKNRVVLEYVFGAEEIAQAEDKAVRYLNQRVEIPGFRKGRIPKNVLKMKLGEEFQEYTLDFLMDLIPDTLKDRKLILSPIVTERELKDVTARVVVEVHEEPEVRIGDISKIEVEKVDEEKVLEKYVERRIEDLRESHALLEPKEGPAEAGDLVRVNMEVYNEEGKKLTSREYEYVISEDEDRPFVKDLVGKKKGDVVEIEREYEGKKYTYKLEVEEVYKRTLPEIGDELAKSVNNEFETLEQLKESLKKEGKEIYDVEMKESMREQLLEKLPEIVEIEISDRTLEILVNEAINRLKREGRYEQIVSSYESEEKFREELKERILDDIKRDRVIEVLAQEKGISVNDEELEKEAEELAPFWGISPDRAKSLVKARQDLREELRWAILKRKVLDLLLQEVKVKVVEPKGEGDDSEGKEDNLEHHHHHH
MSLTPEKLPLHVLLAEDSVVNQKVALSMLGKLGCFPDVAANGREAIDAMRQKRYDLVFMDCQMPEIDGYEVTRRIRKDHSLLCSPDIPVVAMTANAMKGDREKCIDAGMDDFMAKPLKKSDFQAIFERYFPGLFVRESSKEAGAGALTTDDVFLIDDVLFRLQNDREIILIIIGQFLLEAALQITELQAAAAEHDTERVRILSHTIKGAAATVGGQELSRCAAIIEQGAKSGDLTGIDEHLRDLNASYLRFKERVEASGWCEEGGEGHHHHHH
GSMEQFELFSIDKFKCNSEAKYYLNIIEGEWHPQDLNDSPLKFILSTSDDSDYICKYINTEHKQLTLYNKNNSSIVIEIFIPNDNKILLTIMNTEALGTSPRMTFIKHK
EVQLLEQSGAEVKKPGSSVQVSCKASGGTFSMYGFNWVRQAPGHGLEWMGGIIPIFGTSNYAQKFRGRVTFTADQATSTAYMELTNLRSDDTAVYYCARDFGPDWEDGDSYDGSGRGFFDFWGQGTLVTVSSASTKGPSVFPLAPSSKSTSGGTAALGCLVKDYFPEPVTVSWNSGALTSGVHTFPAVLQSSGLYSLSSVVTVPSSSLGTQTYICNVNHKPSNTKVDKKVEPKSCDKTS
MSLARIKDVAELAGVNRSTVSRIINGEGKFREETRKKVEQAMAQLNYRPSAIARSLATSSSNMVGLLVTYYTGGFFGEMMEQVQTELDIHKKFLITAQGHHSAEGEKEAIQRFNDLRCDGYVLHSRYLSDDDLRELAKLPTPFVLLDRYVEGIEERCITFNHHHASRIAVEHLIAGGHKNIACITGPSLRHNSLLRKLGYVDAMKTAGIDIDESWCEEGNYGRQSGYDAMASILKRHPEVTAVFSCSEEMTVGAMQYLHEHKISVPEQISLTSFDSVDLCESLYPTVSAVHFPISDMARAAVQTLMGLVKKQEHIEKPVFEAKLKLRHADREGHHHHHH

Soluble on expression in E. coli, not soluble:
GEAQERQTDDGIAAFCRHLGELCDLLNAPYDDVNALAHLARAGELQGTNVNLLLHNAFYHWLGERVQLSVAESRDVAPETIAAHAREAALAQIQSGEYVSQFVTAVAAHATQNVDGVQGPVAPTKQSLFDLPGHFELLGPDEVDGLLKDLASSDCPVGALEKLVADPHLLEDLCFGPTWPQLCDSLGRLVCLLPPSGGTQAAVTGAGHHQHGHTRAAAAVGGGAGRAAASVPEMPKQQQLLLQALNEVVSAVAASSPPHAAELLDGLAPYLTALALRLSLPLPGAGTGHATPVAPDQLQTRVQAGMAGPGAGAGDGGPGGVAVVGTGAVGLLVAVTARDA
MGSDKIHHHHHHMGCKSVYADSCWISSPTLNFGSVNTQQVSSKTDLDVTCNQYNNVKTSFNLCFYIEDNSPLGINPRRLISLSWPFDYLNYDLYYDPSFSRMIDNKAAPNNLLCKSLQIENNGQQTVQIPIYGKVYANQNVKADNYQSYNMTVKLLYKSKTGDVVPSVEETLAQQNMVQNYMKTTTKFENSCAVVGVNTLDFGSIISLNQPIYGQTSIQLKCPTNTALKVGLDTGLYASGTQRRMTNAGQFIQYDLYQDSAYSIAWGTSDNSVLKLDTYQPVFTIPVYGRILPQNQNLKAGEYRDTITIKLTY
MGSDKIHHHHHHMKHYEAYGIATRNTKIQGQFYRLADEEVFIHHFEPLQKNNDIILLLHGYMDHSLTSARLINRLISEGFEVVALDWPGHGLSKGETYHIRSFRQYNTIFLQLVQDMIERWGSDRIHLIAHSTGAGVVLDGLTNNLKKMPTGGIVLTSPLIKLPSHRIGKLFLPFVRKWRKQVRRIYRTNSSDPLFMKAIEEDPLQHEVIPLTWFDAYLQWHEDMRRRAKCSAENVTILQGTRDTTVHWKANMKWLAETLPSAERILIDGGGHHLWNEGDLIRELVFRFILKRLKKT
MDSRLSDFLARAESVLARLEPLLPAVREAVDWERSLAARWHRDGRSGYLQPLEVSLDLRLADLLGVERQREQLERNTRQFVAGQPANHALLWGARGTGKSSLVRALLAELAGAGLRLIEIERDHLADLPRVVEQLQGLPQRFVLFCDDLSFDAGEGDYRVLKSVLDGSLEQAPENVLLYATSNRRHLVSEKQSDNENWKMVDGELHPNEAVEDKIALSDRFGLWLSFYPFTQEHFLSVVHHWVDVLAEKAGLAWSWSEELEKEAIRWALGRGNRNGRCAYQFSRYWVGKQLLERQA
MSSAPLPPKPIERGYASAGLLARILVSKYMEHIPLYRQSEIYARQGVELSRNTMVRWVSEMADKLRPLYIALNDYVLEAGKVHADDTPVKVLAPGNGKTKTGRLWVYVRDDRNAGSSLPAAVWFAYSADRKGEHPQLHLAKYQGVLQADAYAGYNVLYETGRVKEAGCLAHARRKIHDEDVRRPTEMTQEALRRIAELYDIEAEIRGSPAEERLAVRKARSVQLMQSLYDWIQLQRKTLSKHAEMAKAFDYILNHWNALNEFCRDGRVEIDNNIGENALRSVAVGRKNYLFFGSDKGGESAAIIYSLLVTCKQNEVEPEDWLREVIEKLNDWPSNQVHELLPWNFSSVK
MNNENERFEGFFSRVVEQVRTLVLVPICQENKSENASPVCSVSSRVQEVLGLAQAIRLEVVYYETVNINIPRPATLFGTGKVKALTHYISEYDIELVIVDHFLTPVQQRNLEKLWNCKVIDRTALILEIFGDRARTKEGVLQVELAHLSYQKSRLVRSWTHLERQRGGHGFLGGPGETQIEADRRLLQEKIIRIRRELEKVIKTRALHRAKRKKTSHPIVALVGYTNTGKSTLFNRLSGANVLAKDMLFATLDPTLRKVVLPHGKTILLSDTVGFISHLPTHLIAAFRATLEEVVEADLILHVRDMSDLDHRAHGQDVLEVLADLGIDIDDTEHIIEVWNKIDILDEHALNVLQTSARTRLNPAVMVSALMSDGLDQLLTAIEKRVFGEMQSIECLLRPHEMSLISWFYENSGEIMQEGHNDGSVTIRAMLTSEAKKRLDHIKQTMN
MGSDKIHHHHHHMLEIGFCTLEDQCPYLKDKRSRIEYKYIENCPKEINNELIKRGWRRFGRYFSRPICKDCDECLSLRILVNEYNFSRSERRVVNKNINTKVILRTPNLSNEHLFLYDKYHRFMEEKKNWKRYDLSFKQYYNLYVDGFMNFGYELAFYIEDKLVCVDLIDILEDGISSIYCFYDPDFSYFSLGKFSLLNEIQIAKKMNLDYIYLGYFVKKCQSLSYKADYTPNEILKGTKELFENEVLWEK
LYGYYCMQEEEQLVYWYSGLYLQPQHFQSIDLHHGFMLARSRQLSQPHHQGYYECCINDDLLKEDTVRVEKIKAVLSSGYYIEYPGNCVVQDKCLTNLKGSDHGTVDLWLALKRFNSGHKNVSSVNDKRGSARWISSDDERNMRNVYHDSQDADITRIKYDIQILTDEEKDNTTDYEYLPLTRIIYGNNSLCIDDECSFPVMRLSANHKLRNKIAEIYSDIKFYKNRLEKYRYTERTVSDGHLYNFLILCAINRTLPLLSSFINEDAIHPWLYYMALCQFAGEISTFHNSGLSDTRIVELSYNHYEQISCFSDLQYYIKLILDDSCRDKIISVEFRKITTDTLICNFDEYGAGSNSDYYIKLTSDTFRKNKLIALPEIKIAPSEHIDMIIQHALPGIKFTVMDAVTSDLQVRENTIWLKIDKHSELWTLAQTQKRVAFYWSCSPDDLLVELVLSQEKYAVSRPKQDNGSFHPAVGR
MGSDKIHHHHHHMKIDVEAFRVLSILVEEGSFSKAAERLHKAQSAVSYQVKKLEQHLGVKLFCRDQYRAELTPEGKVILAEGKRLLQYLGNIEHLASRFSEGWEPKLELVVDGSLPMEPIMRALKRVSEHKIPTKIQLNMEFLGGVQHRFERDNADLMLVKDYRTGPNYRPQPLPDINSILVVSRSHPLAKAKELSLFELLQHVELTIEDSSPGKIHSDELQFGGDKVFYLSGFIMKKNALLMGLGFGWMPDFLIQEELASGELQELDFLGGSRYSFTPQLVSTMERPLGRAGRLFTSLILEEFNLYQAQASR
